Results as given in IntAct's records for PubMed 18612383.

B1: Cellular tumor antigen p53 (Mus musculus), P02340 (parent)
chain: MTAMEESQSDISLELPLSQETFSGLWKLLPPEDILPSPHCMDDLLLPQDVEEFFEGPSEALRVSGAPAAQDPVTETPGPVAPAPATPWPLSSFVPSQKTYQGNYGFHLGFLQSGTAKSVMCTYSPPLNKLFCQLAKTCPVQLWVSATPPAGSRVRAMAIYKKSQHMTEVVRRCPHHERCSDGDGLAPPQHLIRVEGNLYPEYLEDRQTFRHSVVVPYEPPEAGSEYTTIHYKYMCNSSCMGGMNRRPILTIITLEDSSGNLLGRDSFEVRVCACPGRDRRTEEENFRKKEVLCPELPPGSAKRALPTCTSASPPQKKKPLDGEYFTLKIRGRKRFEMFRELNEALELKDAHATEESGDSRAHSSYLKTKKGQSTSRHKKTMVKKVGPDSD

Variants of: B1
Settings: with ep300_human EP300, Q09472
ep300_human EP300, Q09472, sequence (Q09472 whole entry): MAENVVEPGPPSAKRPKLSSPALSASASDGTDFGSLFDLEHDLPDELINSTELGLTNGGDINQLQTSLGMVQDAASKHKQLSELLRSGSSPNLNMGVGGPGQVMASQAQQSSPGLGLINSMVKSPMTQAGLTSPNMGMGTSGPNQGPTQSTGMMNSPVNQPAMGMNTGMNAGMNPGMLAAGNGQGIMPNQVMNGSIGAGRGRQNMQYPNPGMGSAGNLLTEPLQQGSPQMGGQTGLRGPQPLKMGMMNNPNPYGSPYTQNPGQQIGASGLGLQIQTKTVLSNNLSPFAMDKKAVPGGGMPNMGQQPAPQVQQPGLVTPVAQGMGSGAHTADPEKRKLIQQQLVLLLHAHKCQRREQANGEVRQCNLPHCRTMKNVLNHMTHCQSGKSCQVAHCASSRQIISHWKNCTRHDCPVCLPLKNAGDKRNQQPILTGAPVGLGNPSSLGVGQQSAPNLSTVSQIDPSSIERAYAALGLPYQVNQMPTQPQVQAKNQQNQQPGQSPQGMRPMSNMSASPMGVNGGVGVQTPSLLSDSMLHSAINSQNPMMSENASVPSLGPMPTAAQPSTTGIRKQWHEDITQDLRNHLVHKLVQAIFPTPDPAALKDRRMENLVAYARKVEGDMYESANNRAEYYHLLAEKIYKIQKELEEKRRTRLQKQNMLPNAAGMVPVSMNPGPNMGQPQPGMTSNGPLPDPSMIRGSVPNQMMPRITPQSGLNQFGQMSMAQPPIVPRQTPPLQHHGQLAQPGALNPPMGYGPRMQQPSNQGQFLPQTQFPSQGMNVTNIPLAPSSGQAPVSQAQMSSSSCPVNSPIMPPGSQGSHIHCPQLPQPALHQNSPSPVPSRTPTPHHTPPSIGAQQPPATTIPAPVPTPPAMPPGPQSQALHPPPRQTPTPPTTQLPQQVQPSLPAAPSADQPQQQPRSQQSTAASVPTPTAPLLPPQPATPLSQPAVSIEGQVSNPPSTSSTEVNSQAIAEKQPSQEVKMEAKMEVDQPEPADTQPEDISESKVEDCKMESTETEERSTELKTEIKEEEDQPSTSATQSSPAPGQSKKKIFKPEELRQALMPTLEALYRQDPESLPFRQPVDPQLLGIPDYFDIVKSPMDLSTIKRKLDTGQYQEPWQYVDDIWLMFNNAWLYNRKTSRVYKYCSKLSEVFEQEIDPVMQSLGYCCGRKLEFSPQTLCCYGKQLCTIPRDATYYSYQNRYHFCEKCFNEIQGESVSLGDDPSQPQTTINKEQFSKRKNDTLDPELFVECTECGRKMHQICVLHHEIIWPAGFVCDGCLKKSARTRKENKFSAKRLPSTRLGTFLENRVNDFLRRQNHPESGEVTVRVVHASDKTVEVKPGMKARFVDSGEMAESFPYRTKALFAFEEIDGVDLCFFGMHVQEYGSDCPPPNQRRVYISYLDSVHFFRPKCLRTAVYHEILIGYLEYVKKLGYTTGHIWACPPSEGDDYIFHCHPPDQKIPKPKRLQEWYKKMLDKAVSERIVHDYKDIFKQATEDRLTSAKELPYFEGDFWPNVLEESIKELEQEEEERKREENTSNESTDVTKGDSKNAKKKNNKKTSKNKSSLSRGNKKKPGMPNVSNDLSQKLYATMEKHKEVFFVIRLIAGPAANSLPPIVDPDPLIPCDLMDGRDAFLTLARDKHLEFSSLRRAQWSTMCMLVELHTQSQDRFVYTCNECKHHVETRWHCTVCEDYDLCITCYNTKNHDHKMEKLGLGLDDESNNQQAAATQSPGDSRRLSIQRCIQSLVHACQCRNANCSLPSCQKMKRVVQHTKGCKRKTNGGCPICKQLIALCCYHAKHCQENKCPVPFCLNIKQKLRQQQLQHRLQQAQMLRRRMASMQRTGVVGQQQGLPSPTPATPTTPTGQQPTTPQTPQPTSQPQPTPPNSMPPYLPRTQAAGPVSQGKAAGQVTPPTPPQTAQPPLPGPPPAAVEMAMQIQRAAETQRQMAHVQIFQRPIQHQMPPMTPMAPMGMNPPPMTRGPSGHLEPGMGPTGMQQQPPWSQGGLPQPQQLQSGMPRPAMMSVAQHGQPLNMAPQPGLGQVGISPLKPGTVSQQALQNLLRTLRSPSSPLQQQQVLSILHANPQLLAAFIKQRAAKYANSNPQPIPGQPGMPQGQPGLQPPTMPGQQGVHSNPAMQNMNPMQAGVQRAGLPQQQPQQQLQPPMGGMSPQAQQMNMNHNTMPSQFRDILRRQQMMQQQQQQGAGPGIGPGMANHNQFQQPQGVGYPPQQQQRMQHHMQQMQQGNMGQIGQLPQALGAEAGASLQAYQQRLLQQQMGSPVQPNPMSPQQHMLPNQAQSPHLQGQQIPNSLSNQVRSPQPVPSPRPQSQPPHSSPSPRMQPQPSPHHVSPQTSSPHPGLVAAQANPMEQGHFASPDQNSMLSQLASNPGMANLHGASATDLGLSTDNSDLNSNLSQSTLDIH

| Variant | effect of a mutation on the interaction |
| --- | --- |
| L25Q;W26S | decreasing interaction |
